Measured values published in IntAct's records for PubMed 23007647.

B1: Protein HEG homolog 1 (Homo sapiens), Q9ULI3 (parent)
chain: MASPRASRWPPPLLLLLLPLLLLPPAAPGTRDPPPSPARRALSLAPLAGAGLELQLERRPEREPPPTPPRERRGPATPGPSYRAPEPGAATQRGPSGRAPRGGSADAAWKHWPESNTEAHVENITFYQNQEDFSTVSSKEGVMVQTSGKSHAASDAPENLTLLAETADARGRSGSSSRTNFTILPVGYSLEIATALTSQSGNLASESLHLPSSSSEFDERIAAFQTKSGTASEMGTERAMGLSEEWTVHSQEATTSAWSPSFLPALEMGELTTPSRKRNSSGPDLSWLHFYRTAASSPLLDLSSSSESTEKLNNSTGLQSSSVSQTKTMHVATVFTDGGPRTLRSLTVSLGPVSKTEGFPKDSRIATTSSSVLLSPSAVESRRNSRVTGNPGDEEFIEPSTENEFGLTSLRWQNDSPTFGEHQLASSSEVQNGSPMSQTETVSRSVAPMRGGEITAHWLLTNSTTSADVTGSSASYPEGVNASVLTQFSDSTVQSGGSHTALGDRSYSESSSTSSSESLNSSAPRGERSIAGISYGQVRGTAIEQRTSSDHTDHTYLSSTFTKGERALLSITDNSSSSDIVESSTSYIKISNSSHSEYSSFFHAQTERSNISSYDGEYAQPSTESPVLHTSNLPSYTPTINMPNTSVVLDTDAEFVSDSSSSSSSSSSSSSSGPPLPLPSVSQSHHLFSSILPSTRASVHLLKSTSDASTPWSSSPSPLPVSLTTSTSAPLSVSQTTLPQSSSTPVLPRARETPVTSFQTSTMTSFMTMLHSSQTADLKSQSTPHQEKVITESKSPSLVSLPTESTKAVTTNSPLPPSLTESSTEQTLPATSTNLAQMSPTFTTTILKTSQPLMTTPGTLSSTASLVTGPIAVQTTAGKQLSLTHPEILVPQISTEGGISTERNRVIVDATTGLIPLTSVPTSAKEMTTKLGVTAEYSPASRSLGTSPSPQTTVVSTAEDLAPKSATFAVQSSTQSPTTVSSSASVNSCAVNPCLHNGECVADNTSRGYHCRCPPSWQGDDCSVDVNECLSNPCPSTAMCNNTQGSFICKCPVGYQLEKGICNLVRTFVTEFKLKRTFLNTTVEKHSDLQEVENEITKTLNMCFSALPSYIRSTVHASRESNAVVISLQTTFSLASNVTLFDLADRMQKCVNSCKSSAEVCQLLGSQRRIFRAGSLCKRKSPECDKDTSICTDLDGVALCQCKSGYFQFNKMDHSCRACEDGYRLENETCMSCPFGLGGLNCGNPYQLITVVIAAAGGGLLLILGIALIVTCCRKNKNDISKLIFKSGDFQMSPYAEYPKNPRSQEWGREAIEMHENGSTKNLLQMTDVYYSPTSVRNPELERNGLYPAYTGLPGSRHSCIFPGQYNPSFISDESRRRDYF
B2: Krev interaction trapped protein 1 (Homo sapiens), O00522 (parent)
chain: MGNPENIEDAYVAVIRPKNTASLNSREYRAKSYEILLHEVPIEGQKKKRKKVLLETKLQGNSEITQGILDYVVETTKPISPANQGIRGKRVVLMKKFPLDGEKMGREASLFIVPSVVKDNTKYTYTPGCPIFYCLQDIMRVCSESSTHFATLTARMLIALDKWLDERHAQSHFIPALFRPSPLERIKTNVINPAYATESGQTENSLHMGYSALEIKSKMLALEKADTCIYNPLFGSDLQYTNRVDKVVINPYFGLGAPDYSKIQIPKQEKWQRSMSSVTEDKERQWVDDFPLHRSACEGDSELLSRLLSERFSVNQLDSDHWAPIHYACWYGKVEATRILLEKGKCNPNLLNGQLSSPLHFAAGGGHAEIVQILLNHPETDRHITDQQGRSPLNICEENKQNNWEEAAKLLKEAINKPYEKVRIYRMDGSYRSVELKHGNNTTVQQIMEGMRLSQETQQYFTIWICSENLSLQLKPYHKPLQHVRDWPEILAELTNLDPQRETPQLFLRRDVRLPLEVEKQIEDPLAILILFDEARYNLLKGFYTAPDAKLITLASLLLQIVYGNYESKKHKQGFLNEENLKSIVPVTKLKSKAPHWTNRILHEYKNLSTSEGVSKEMHHLQRMFLQNCWEIPTYGAAFFTGQIFTKASPSNHKVIPVYVGVNIKGLHLLNMETKALLISLKYGCFMWQLGDTDTCFQIHSMENKMSFIVHTKQAGLVVKLLMKLNGQLMPTERNS

Assays:
[1] = variants of: B1; conditions: with krit1_human KRIT1, O00522
heg1_human HEG1, Q9ULI3 = variants of: B2; conditions: with heg1_human HEG1, Q9ULI3
ccm2_human CCM2, Q9BSQ5 = variants of: B2; conditions: with ccm2_human CCM2, Q9BSQ5
[2] = variants of: B2; conditions: with rap1a_mouse Rap1a

Chain of ccm2_human CCM2, Q9BSQ5 (Q9BSQ5 whole entry): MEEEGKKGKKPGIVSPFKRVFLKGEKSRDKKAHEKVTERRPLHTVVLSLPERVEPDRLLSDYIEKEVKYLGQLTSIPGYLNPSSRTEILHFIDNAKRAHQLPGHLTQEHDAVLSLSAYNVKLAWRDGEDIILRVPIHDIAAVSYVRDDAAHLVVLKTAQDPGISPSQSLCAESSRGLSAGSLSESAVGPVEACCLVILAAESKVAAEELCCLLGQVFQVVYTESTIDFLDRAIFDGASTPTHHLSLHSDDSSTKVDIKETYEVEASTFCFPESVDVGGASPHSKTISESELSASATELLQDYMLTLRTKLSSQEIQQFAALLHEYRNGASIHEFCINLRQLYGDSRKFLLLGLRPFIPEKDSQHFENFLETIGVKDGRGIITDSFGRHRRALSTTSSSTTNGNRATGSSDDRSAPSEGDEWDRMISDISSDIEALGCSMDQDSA

Variant | effect of a mutation on the interaction [1] | effect of a mutation on the interaction (heg1_human HEG1, Q9ULI3) | effect of a mutation on the interaction (ccm2_human CCM2, Q9BSQ5) | effect of a mutation on the interaction [2]
N1367A;F1370A | with no effect | – | – | –
L717A;L721A | – | decreasing interaction strength | with no effect | with no effect
R452E | – | – | – | disrupting interaction strength
